This note sets out measurements from the DeepSol protein solubility set.

The nature of this data set: soluble on expression in E. coli; label from the status in PepcDB or PDB records.
Turning to “GPGSMDLLGSQIAAALEEGSRKRKRDVEEGCSALVSHVNSTLDVITTDVRNTLTEQHCEMEERVNRLMKMAGDFATAVDTWQKKASDSVCAVESQQQLLWELLQDVEKRAQERKKEMLKRQEQRMEELRTMLLERIQKAEASMQL”, the “soluble on expression in E. coli” value is “not soluble”.
With “MRKKLKAVLFDMDGVLFNSMPYHSEAWHQVMKTHGLDLSREEAYMHEGRTGASTINIVFQRELGKEATQEEIESIYHEKSILFNSYPEAERMPGAWELLQKVKSEGLTPMVVTGSGQLSLLERLEHNFPGMFHKELMVTAFDVKYGKPNPEPYLMALKKGGLKADEAVVIENAPLGVEAGHKAGIFTIAVNTGPLDGQVLLDAGADLLFPSMQTLCDSWDTIML”, the “soluble on expression in E. coli” value is “not soluble”.
The entry for “MSLQHNELKTPYFMINEDKLIANLEKAKQLKEISGVKLVLALKCFSTWGVFDIIKPYLDGTTSSGPFEVKLGYETFGGETHAYSVGYSEDDVREVADICDKMIFNSQSQLAAYRHIVEGKASIGLRLNPGVSYAGQDLANPARKFSRLGVQADHIKPEVFEGIDGVMFHMNCENKDVDAFIGLLDAISEQFGEYLNKLDWVSMGGGVFFTWPGYDIEKLGLALKAFSEKHGVQMYLEPGEAIITKTTDLVVTVVDIVENVKKTAIVDSATEAHRLDTLIYNEPASILEASDNGEHEYVIGSCSCLAGDQFCVANFDQPLEIGQRLHILDSAGYTMVKLNWFNGLRMPSVYCERSSGEIQKLNEFDYSDFKRSLSEGHHHHHH” is “not soluble”.
In the case of “SRLEGWLSLPVRNNTKKFGWVKKYVIVSSKKILFYDSEQDKEQSNPYMVLDIDKLFHVRPVTQTDVYRADAKEIPRIFQILYANEGISSAKNLLLLANSTEEQQKWVSRLVKKIPKK”, the “soluble on expression in E. coli” value is given as “soluble”.
On to “MGSDKIHHHHHHMELGTPIAEGNTAKIYLVENRVVKVFKGHLPDTEAANEARKQKYAHSCGLSVPEIFDVTEVNGKQAIMMEYINGKTMGEILFENKEQAEYYMSISVGIQHQIHSKVADSLEPMSEKLSRQIKAAPGLSNNQRSALLKRLETLSIDNRLCHGDFHLYNLIKTNNKVTIIDWVDASVGDMCADICRTYLLYSQFSAELADMYLHLSCKKRGLSQADIFQWAPIIAGARLSETVISEKAERLIEIVKHHFPR”, for which the “soluble on expression in E. coli” value is given as “not soluble”.
“MALMTMVQALNRALDEEMAKDPRVVVLGEDVGKRGGVFLVTEGLLQKYGPDRVMDTPLSEAAIVGAALGMAAHGLRPVAEIQFADYIFPGFDQLVSQVAKLRYRSGGQFTAPLVVRMPSGGGVRGGHHHSQSPEAHFVHTAGLKVVAVSTPYDAKGLLKAAIRDEDPVVFLEPKRLYRSVKEEVPEEDYTLPIGKAALRREGKDLTLIGYGTVMPEVLQAAAELAKAGVSAEVLDLRTLMPWDYEAVMNSVAKTGRVVLVSDAPRHASFVSEVAATIAEDLLDMLLAPPIRVTGFDTPYPYAQDKLYLPTVTRILNAAKRALDY”: the “soluble on expression in E. coli” value is on record as “soluble”.
As to “GSMAGSVGAAAPVTAANGDDSESETSESDDDSPPRPAAVAVHKREEDEEEDDEFEEVADDPIVMVAGRPFSYSEVSQRPELVAQMTPEEKEAYIAMGQRMFEDLFE”, the “soluble on expression in E. coli” value is “soluble”.
The entry for “SPSETLWEIAKAEVEKRRSHGSEGDGAEIGEKSVFFIGSKNGGKTTIILRCLDRDESAKPTLALEYTYGRKTKGHNTPKDIAHFWELGGGTSLLDLISIPITVDTLRTFSIVLVLDLSKPNDLWSTMENLLQATKSHVDKVIMKLGKTSSKASAEMRQRMWSVVQKDHPDRELIDPFPIPLVIIGSKYDIFQDFDPEKRKVICKTLRFVAHYYGASLMFTSKSEALLLKIRGVINQLAFGIDKSKSICVDQNKPLFITAGLDSLCQIGSPPVPDSDIGKLQAHSPMELWKKVYDKLFPPKSTGTLKAVQDPARDPQYAESEVDEMRVQKDQELEHYKRSSSKTWKQIELDS” is “soluble”.
The entry for “MSLASPDWQDQIIYFLMIDRFNDGDSALNDQGQNEFDPTSDKKFSGGDLVGVSDKLSYIEDLGATSIWITPPVANQWWDAEQNYGGYHGYWARDFQKVDEHFGDMESYQALAREVHARNMFLIQDIVTNHVGNFFTYDDPYSYDPSLPCQGFRLIKNALPAGQELPYPLNMNECKTDGTGSYHWTPTITDHNDPVQEKTWQLSDLDDLNTSDPEVRAYLKESYRKWIREVGVDGFRIDTVKFVEHDFWSDFLHADDGVMTQAVDTGRDNFLTFGEVFETSTPYHTEGEEKMLTYIGESGSPKQLTSVLNFPLQATMTRVFASGQPTDYLRFRLEKMMEMFPNPYIMPNFIDNHDMPRFLSQGSVNDMKQALITMMSVPGIPVIYQGTEQAMSAARDAMFAGGYREDGNYVDSFDQNSEMYLFIQELAKLRTENKVMTRGEIKVIGSDKAGAGVFAFTRTLDNDEVLVVMNTSNSPMLMNQLDVEQAGGTVFKQQIMSNWADAPEQLVADENGHVTLELPAKSAVIYSKTSSNQSVNTPDLNIQLAQDWEGKTITGDIVIAGSANANEKLNLVVDGNLETAQTITVGADGQFSVTLSTRHFAIGEQQHRFAIYSTEKKAGIEDVNFVSNLSWSNTPDDTIDDAGDAQDGVGGPNGNYSLPTDPTFDKDNSQLAINKAEVFTVGSNVRLTFTMDKITDTWLPPNGFDHVGFTIFIDLPEEAATNLSELPKINASMPNGTWSRNAVVFGWQSSIYNTKGANATTWGEAVTPAPTVTVDKANNTISMDFASDALGRPESLDGIRFYVTTWDLDGLSATYRPLEQDKGPWNFSGGASDESKIWDDLPIITLSEGHHHHHH” is “not soluble”; for KSKKAVWHKLLSKQRRRAVVACFRMTPLYN it is “soluble”.
Turning to “MGSDKIHHHHHHQTIDETAIIARAQAIATRINEFLATRERNLLAKILALGGVQQAEIFEIQVKARLHPADVERVLAVLNHPAITVTKTSERTQYDTYFIFANGERIRIREDHRTDPGARPQPKYTLTLMAEARRFDHPKAMMLSRARYTAPADHTVRFYREYFQPDRIEELEKQRRRWRILYRDHDFAINLDTLIGQADRGPFLEIKSRTWSRRDAERRAELISELLELIGISDDALVLQEYVELVA”, the “soluble on expression in E. coli” value is recorded as “not soluble”.
The entry for “MEERPSETNSNVDSSAQPSVAQLAGRFREHAAVARETPASKPTRRKPPCSLPLFPPKVELGQNGEEKSPSGASHPPKIKVKSSPLIEKLQANLAFDPAALLPGASPKSPGLKAIISPFHSPPSTPSSPGIRSHPSEAEEVPVSFDQPPEGTHLPSYNKVRTRGSIKRRPPSRRFRRSQSDCGDFRDYRAVEPSQENGAREENGDDVFPSKSKDPGSPQLNQEAMADGVEGTPRSAEKPRRRNTCNSTEKPEELVRTPEEANAGEKVGQNPDTASQGHPEVQAPSQTGSPEAENGCGSPREETAPGEHTDTGKATEGTASEERVADEDRLGQKSPDANMPEEEGVVREKAPQTSSGKAEGTTIAEPDTKQKEEAPLEPSCSPGADHAAGEITSEIQNEKAVSMDDIPIEDTRM” is “not soluble”; for “MGSDKIHHHHHHMFKPQGLYDYICQQWQEEILPSLCDYIKIPNKSPHFDAKWEEHGYMEQAVNHIANWCKSHAPKGMTLEIVRLKNRTPLLFMEIPGQIDDTVLLYGHLDKQPEMSGWSDDLHPWKPVLKNGLLYGRGGADDGYSAYASLTAIRALEQQGLPYPRCILIIEACEESGSYDLPFYIELLKERIGKPSLVICLDSGAGNYEQLWMTTSLRGNLVGKLTVELINEGVHSGSASGIVADSFRVARQLISRIEDENTGEIKLPQLYCDIPDERIKQAKQCAEILGEQVYSEFPWIDSAKPVIQDKQQLILNRTWRPALTVTGADGFPAIADAGNVMRPVTSLKLSMRLPPLVDPEAASVAMEKALTQNPPYNAKVDFKIQNGGSKGWNAPLLSDWLAKAASEASMTYYDKPAAYMGEGGTIPFMSMLGEQFPKAQFMITGVLGPHSNAHGPNEFLHLDMVKKLTSCVSYVLYSFSQKK” it is “not soluble”; for “NIKNILSERVSAAMVAAGLPEGTNPAISLSNRPQFGDYQANGVMGAAKKLKTNPRELATKVVAELDLDGIASKIELAGPGFINIHLDESWLAAQLNEVAQDDFIGVAQRGTT” it is “not soluble”.
“SLNAAAADRNKDPILSVLKSRVASNRRLFALEISSGTGQHVVHFAKAFPNITWQPSEVETQSLSSIEAYRQYHRLQNVQPPIYLDVSQSWQTWGGFPAESCDLIININMMHISPLACTTGLFHGVGQILKPQGLLLTYGPYAFNGSIVPQSNFDFDQSLRYRNPEWGLRDASFLTTLGQENGLRLEEIVDMPANNKCLLFRKDSVV”: the “soluble on expression in E. coli” value is on record as “soluble”.
The entry for “MGSDKIHHHHHHLKKITNFRSLGGYQNAHGQMVKDGLIFRSGQLFELEDDQSHYLGQTLGIKHIVDMRSDDERTEFPDTVWEGADYAVLDILKDATANNASLGRMITEKGNVHENMLATYEQLALSDSAKTGYRQFIQGLLRPNEPTIFHCFAGKDRTGVGAALILKILDVSEQDIMADYLQTNAERTVANEEILAGLKERGFTDQQLKSIGEALKVDADYLRRYFQVIDQQFGPFQQYLREGLKLSAGEIAQFRDLYLQK” is “not soluble”; for “MSLIHAFIKKGCFQDSVSLMIISRKLSESENVDDVSVMMGTPANKALLDTTGFWHDDFNNATPNDICVAIRSEAADAGIAQAIMQQLEEALKQLAQGSGSSQALTQVRRWDSACQKLPDANLALISVAGEYAAELANQALDRNLNVMMFSDNVTLEDEIQLKTRAREKGLLVMGPDCGTSMIAGTPLAFANVMPEGNIGVIGASGTGIQELCSQIALAGEGITHAIGLGGRDLSREVGGISALTALEMLSADEKSEVLAFVSKPPAEAVRLKIVNAMKATGKPTVALFLGYTPAVARDENVWFASSLDEAARLACLLSRVTARRNAIAPVSSGFICGLYTGGTLAAEAAGLLAGHLGVEADDTHQHGMMLDADSHQIIDLGDDFYTVGRPHPMIDPTLRNQLIADLGAKPQVRVLLLDVVIGFGATADPAASLVSAWQKACAARLDNQPLYAIATVTGTERDPQCRSQQIATLEDAGIAVVSSLPEATLLAAALIHPLSPAAQQHTPSLLENVAVINIGLRSFALELQSASKPVVHYQWSPVAGGNKKLARLLERLQEGHHHHHH” it is “soluble”; for “MGSSHHHHHHSSGLVPRGSHMYLINQNGWIEVICGSMFSGKSEELIRRVRRTQFAKQHAIVFKPCIDNRYSEEDVVSHNGLKVKAVPVSASKDIFKHITEEMDVIAIDEVQFFDGDIVEVVQVLANRGYRVIVAGLDQDFRGLPFGQVPQLMAIAEHVTKLQAVCSACGSPASRTQRLIDGEPAAFDDPIILVGASESYEPRCRHCHAVPTKQR” it is “soluble”.
As for “MSLSIWGLVNEEDAEIDEDDLSKQEDGGEQPLRKVRTLAQSKPSDKEVILKTDGTFGTLSGKDDSIVEEKAYEPDLSDADFEGIEASPKLDVSKDWVEQLILAGSSLRSVFATSKEFDGPCQNEIDLLFSECNDEIDNAKLIMKERRFTASYTFAKFSTGSMLLTKDIVGKSGVSIKRLPTELQRKFLFDDVYLDKEIEKVTIEARKSNPYPQISESSLLFKDALDYMEKTSSDYNLWKLSSILFDPVSYPYKTDNDQVKMALLKKERHCRLTSWIVSQIGPEIEEKIRNSSNEIEQIFLYLLLNDVVRASKLAIESKNGHLSVLISYLGSNDPRIRDLAELQLQKWSTGGCSIDKNISKIYKLLSGSPFEGLFSLKELESEFSWLCLLNLTLCYGQIDEYSLESLVQSHLDKFSLPYDDPIGVIFQLYAANENTEKLYKEVRQRTNALDVQFCWYLIQTLRFNGTRVFSKETSDEATFAFAAQLEFAQLHGHSLFVSCFLNDDKAAEDTIKRLVMREITLLRASTNDHILNRLKIPSQLIFNAQALKDRYEGNYLEGHHHHHH”, the “soluble on expression in E. coli” value is recorded as “not soluble”.
Take “KDIYASMETARREGKSFNTWKKGLVDEMERKGWVAGRDKKLGRGLDGTLLADPKTGEYFGTPRRLNTIYRVNMQAAYSGARYQRMMDNVDNRPYWKYSAVSDSRTRPAHLALNGRVYRYDAPFWATFYPPNGFNCRCTVI”: the “soluble on expression in E. coli” value is reported as “not soluble”.
